{"source": "patent US20250011363A1", "about": "“OPTIMIZED SHORTENED PEPTIDE THAT BINDS TO ACETYLCHOLINE RECEPTOR, AND USE THEREOF” (SKINMED CO., LTD., priority 2021, published 2025)", "data": [{"target": "acetylcholine receptor", "test": "SPR, peptide at 10 uM on immobilized AchR", "units": {"Binding affinity (RU)": "RU"}, "values": [{"binder": "KTNERK", "note": "[6mer-2-1060]", "Binding affinity (RU)": 35}, {"binder": "REKPRK", "note": "[6mer-2-1084]", "Binding affinity (RU)": 29}, {"binder": "RHMERK", "note": "[6mer-2-1075]", "Binding affinity (RU)": 31}, {"binder": "KAPARK", "note": "[6mer-2-1052]", "Binding affinity (RU)": 23}, {"binder": "KYSWRK", "note": "[6mer-2-1073]", "Binding affinity (RU)": 24}, {"binder": "KMSPRR", "note": "[6mer-2-1049]", "Binding affinity (RU)": 26}, {"binder": "RPMGRK", "note": "[6mer-2-1074]", "Binding affinity (RU)": 33}, {"binder": "KAWERK", "note": "[6mer-2-1094]", "Binding affinity (RU)": 43}, {"binder": "RFADRR", "note": "[6mer-2-1059]", "Binding affinity (RU)": 35}, {"binder": "KTTDKK", "note": "[6mer-2-1093]", "Binding affinity (RU)": 43}, {"binder": "KHDMKK", "note": "[6mer-2-1069]", "Binding affinity (RU)": 36}, {"binder": "RMPWKK", "note": "[6mer-2-1058]", "Binding affinity (RU)": 24}, {"binder": "RKKKKK", "note": "[6mer-2-1057]", "Binding affinity (RU)": 25}, {"binder": "RPHVRR", "note": "[6mer-2-1070]", "Binding affinity (RU)": 31}, {"binder": "KPPIKK", "note": "[6mer-2-1061]", "Binding affinity (RU)": 38}, {"binder": "KEEMRR", "note": "[6mer-2-1087]", "Binding affinity (RU)": 21}, {"binder": "RNDERK", "note": "[6mer-2-1056]", "Binding affinity (RU)": 22}, {"binder": "KDTFRR", "note": "[6mer-2-1078]", "Binding affinity (RU)": 40}, {"binder": "RDEIRK", "note": "[6mer-2-1067]", "Binding affinity (RU)": 29}, {"binder": "KMTIKK", "note": "[6mer-2-1077]", "Binding affinity (RU)": 34}, {"binder": "KPPPRK", "note": "[6mer-2-1050]", "Binding affinity (RU)": 26}, {"binder": "RHDDKR", "note": "[6mer-2-1047]", "Binding affinity (RU)": 28}, {"binder": "RANVKR", "note": "[6mer-2-1096]", "Binding affinity (RU)": 39}, {"binder": "RKHKKK", "note": "[6mer-2-1080]", "Binding affinity (RU)": 23}, {"binder": "RIHNRK", "note": "[6mer-2-1048]", "Binding affinity (RU)": 22}, {"binder": "RNSEKR", "note": "[6mer-2-1046]", "Binding affinity (RU)": 39}, {"binder": "KYKMRR", "note": "[6mer-2-1081]", "Binding affinity (RU)": 32}, {"binder": "KPHWKR", "note": "[6mer-2-1072]", "Binding affinity (RU)": 29}, {"binder": "KEMGKK", "note": "[6mer-2-1053]", "Binding affinity (RU)": 34}, {"binder": "RFNVRK", "note": "[6mer-2-1063]", "Binding affinity (RU)": 24}, {"binder": "KCNEKK", "note": "[6mer-2-1079]", "Binding affinity (RU)": 40}, {"binder": "KYNIRK", "note": "[6mer-2-1062]", "Binding affinity (RU)": 35}, {"binder": "KPDFKR", "note": "[6mer-2-1055]", "Binding affinity (RU)": 30}, {"binder": "KEMHKK", "note": "[6mer-2-1090]", "Binding affinity (RU)": 33}, {"binder": "KYSMRR", "note": "[6mer-2-1095]", "Binding affinity (RU)": 39}, {"binder": "RIANRK", "note": "[6mer-2-1065]", "Binding affinity (RU)": 27}, {"binder": "RTTWRK", "note": "[6mer-2-1071]", "Binding affinity (RU)": 25}, {"binder": "RKTDRR", "note": "[6mer-2-1089]", "Binding affinity (RU)": 43}, {"binder": "KHPKRR", "note": "[6mer-2-1098]", "Binding affinity (RU)": 28}, {"binder": "KYTERR", "note": "[6mer-2-1082]", "Binding affinity (RU)": 31}, {"binder": "RIHVKK", "note": "[6mer-2-1068]", "Binding affinity (RU)": 26}, {"binder": "RYCIRR", "note": "[6mer-2-1076]", "Binding affinity (RU)": 34}, {"binder": "KTKGKR", "note": "[6mer-2-1083]", "Binding affinity (RU)": 39}, {"binder": "KKNKKR", "note": "[6mer-2-1054]", "Binding affinity (RU)": 43}, {"binder": "RKHMRR", "note": "[6mer-2-1051]", "Binding affinity (RU)": 24}, {"binder": "RPCEKK", "note": "[6mer-2-1088]", "Binding affinity (RU)": 39}, {"binder": "KNDWRK", "note": "[6mer-2-1086]", "Binding affinity (RU)": 21}, {"binder": "RAKFRR", "note": "[6mer-2-1092]", "Binding affinity (RU)": 21}, {"binder": "RPEIRK", "note": "[6mer-2-1085]", "Binding affinity (RU)": 42}, {"binder": "RFDNKR", "note": "[6mer-2-1091]", "Binding affinity (RU)": 31}, {"binder": "KPEHKR", "note": "[6mer-2-1066]", "Binding affinity (RU)": 29}, {"binder": "RFWEKK", "note": "[6mer-2-1097]", "Binding affinity (RU)": 23}, {"binder": "RCMKRR", "note": "[6mer-2-1064]", "Binding affinity (RU)": 39}]}, {"target": "acetylcholine receptor", "test": "SPR, AchR immobilized on chip, peptide 10 uM", "units": {"Binding affinity (RU)": "RU"}, "values": [{"binder": "RSIRR", "note": "[5mer-160]", "Binding affinity (RU)": 53}, {"binder": "KGRCR", "note": "[5mer-157]", "Binding affinity (RU)": 78}, {"binder": "RVFTK", "note": "[5mer-151]", "Binding affinity (RU)": 66}, {"binder": "RWLYK", "note": "[5mer-455]", "Binding affinity (RU)": 61}, {"binder": "KRYLR", "note": "[5mer-155]", "Binding affinity (RU)": 57}, {"binder": "RSQLR", "note": "[5mer-459]", "Binding affinity (RU)": 76}, {"binder": "KGLRK", "note": "[5mer-156]", "Binding affinity (RU)": 85}, {"binder": "RVIQK", "note": "[5mer-450]", "Binding affinity (RU)": 78}, {"binder": "KQFLR", "note": "[5mer-149]", "Binding affinity (RU)": 80}, {"binder": "KGLYR", "note": "[5mer-449]", "Binding affinity (RU)": 65}, {"binder": "RGQYK", "note": "[5mer-457]", "Binding affinity (RU)": 59}, {"binder": "RRFLK", "note": "[5mer-458]", "Binding affinity (RU)": 65}, {"binder": "KWVTK", "note": "[5mer-161]", "Binding affinity (RU)": 52}, {"binder": "KGVCR", "note": "[5mer-453]", "Binding affinity (RU)": 68}, {"binder": "RRRRR", "note": "[5mer-152]", "Binding affinity (RU)": 56}, {"binder": "RSITR", "note": "[5mer-154]", "Binding affinity (RU)": 54}, {"binder": "RQVLK", "note": "[5mer-451]", "Binding affinity (RU)": 53}, {"binder": "RGVSK", "note": "[5mer-452]", "Binding affinity (RU)": 82}, {"binder": "RLQQR", "note": "[5mer-460]", "Binding affinity (RU)": 74}, {"binder": "RSIQK", "note": "[5mer-153]", "Binding affinity (RU)": 72}, {"binder": "RVRTR", "note": "[5mer-150]", "Binding affinity (RU)": 64}, {"binder": "RWQTK", "note": "[5mer-158]", "Binding affinity (RU)": 65}, {"binder": "RQVLR", "note": "[5mer-454]", "Binding affinity (RU)": 77}, {"binder": "RGQRR", "note": "[5mer-159]", "Binding affinity (RU)": 73}, {"binder": "RLVCK", "note": "[5mer-456]", "Binding affinity (RU)": 52}]}]}
